From the domain aggregation screens of Martell et al. (2025)

assay: soluble fraction after stress (log2 fold change); higher = more stays soluble; pooled small domains, quantitative proteomics; conditions: stress: 75 degC
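Further: 20 min heating vs room temperature control held 20 min.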

Sequence | soluble fraction (log2)
HMKRAVGLDEYRDSIVLKKPEGYTEESYAAYKNAYDALMALDSKETTAEMFANAKSAFEAAQAGLVQKP | 0.119
HMKRIFEKKVVTESLNGLRLDKAAATLFADFSRNELGQWIKDEALLVNGKAKKVKEKVSEGDVLALDVELI | 0.203
HMKRISDEDLLVMRRIDEVHTYHPTWGYRTITRILRRDDHLLINPKKVRRIMRDMGIYTIYPK | -0.0338
HMKRITAVISQKKGRDYYYIIVSYYLSNGKRVQRWIKTEFPINGNNKRKLEQKRIEVLQEWQDKLV | -1.23
HMKRLQEQAYDYLKELILSGKMIENEIYSETKLASEIGISRTPIRDALQRLSQDGFIDIIPSKGFRIH | -0.734
HMKRMSKKQLSAVIEKYFSSQPGVTLTLKDIFRNLHLDTHPLKMIALDILEEMSWDDVIMKVSDTSYALNT | 0.194
HMKRNLESVLDHIEGIGPKRRKALYKHFGNLDAMRVAELEELESVEGMNKKAALAVYEFFRRNS | 0.386
HMKRNTKAEVLEILLNSGETPVSGERLAENLGISRNAVWKAVTALKEDGYNISAKRNSGYILNKS | -0.143
HMKRREENLRRLALSTAERVKRKGKKEILNPMSPQERRIIHLTLQNNKEVVTHSEGEDPYRRVIISPRN | -0.397
HMKRRSLQVGDIVQVRSLNVKGEVVSIGKNEVVVAVGRLQMRAGFDDLDFKERPKEEREVESV | -0.467
HMKRSFGSVRQLRSGNYQARYTGPDTVRHTSPVTYTSKMDAEAWLVDERRKISSGTWTPPAR | -0.193
HMKRSVIVTAERAEVRQKADEGSALVFEAEKNVSLEYLEAAPGGWVKVRHLDGQSGFVRGNQI | -0.309
HMKRTKLEEATEWLRDRLSDGVKYNGEELLREGESADMARRTLRRAAQELGVIIERERGARGRWFWSLP | -0.897
HMKRTLLLEGRTIPYELTQKPVKNINIRVHADGSVRVSAGPWVSPEAVDAVLRQRSAFLLRALDQFAAQAP | -1.91
HMKRVPFAFAGDMLRWAAWLYHVEKRTQNEIAEELEVSRQTVANYLSEAMSQGLVQVQLRSDIIE | -1.98
HMKSAIGEEKAENFAFADLGMDPLSAEGVRTEFGFEQGQFVYKVYFTADGTEYEYWIKASDGSVVKKGMDL | -1.53
HMKSAIKQNILLYLSNKGVTSYEFYKISGVTRGILQQSNGISEDNIAKFLAYAPDVNIEWLLTGKGDMLKH | -1.41
HMKSATGKIPDFISDLPVDEFVRELIVTNAFQPLNKFKEVQNHIGSALKIYVDELTEKRANGTVHILYSHK | 0.46
HMKSAYADVAIAKVQDYVNVRAENNEDSEVLGKLYNNSAATVLETTDDGWYKISSGSVTGYVKSEYVVVG | -0.111
HMKSEMYIDLSNALLKMSERDKELLTYRYTMEMSSKEISQITGIKESNVNSYIRRAREKLLKIFNAMNK | -3.73
HMKSFDERQAALNELAKVIEGTGRKAEQDAEFRREQNQLMIDKIDEQLKGDLTDSQREELKKERAALARK | 0.174
HMKSGLLNLSTRKQEKIKQALLSEFSNVSLLEAKVANIVTLAEISRGSFYTYFEDIYDAYQWLASI | -0.513
HMKSIFIRADELAAELDVSKALAYKMINQWNEELKAKGYTTVGGRVSRQYYYEKIYGAENVFDF | -1.76
HMKSILDDVVGLGPVRKKALLSAAGGFRKLRDMDVDEVIGLGAVPEEVAREVVTVLAQYNGERDRVEGL | -0.146
HMKSILSEIPGIGPKKRKSLMMQFGSVKNISEASLKDLSSTKGINSNLSKEIFNFFSVEKNN | -0.0299
HMKSKNILLGEYKGKEVHVGEGKYGPFILYDKKFKSIGAYLTENSLMLKDLTIEDYSKIMKFTENSNSKS | -0.91
HMKSKNRLTKSYLDSIPGVGRKRKSILLRYFGSIDQIKRASSEDIANVPGIGKITSDLVYNYFNQ | -0.811
HMKSLAQELVDALGDRIRDGRLKVGDKLPSEAAIEAQYGVSRTVVREAISRLQAAGLVVTRHGIGTFIVGI | -2.45

Sequence | soluble fraction (log2)
HMKSLLDQINGIGAIRKRALLNHFGSARAVESASLDEIKSVEGVEAKVAKKIYNFFHEYKNMLR | -1.51
HMKSLLSRREQEVLELVSRGFSYSEIAELKNLSVHTIQTHIKSLYGKLEVHSKMEAVLEATRMGLLPQ | -2.34
HMKSSLAKNLETLMQERQISQTRLSKISGVSQSYIFKILNDQIKKPSLDTLEKLATALDSTVAQLNH | -0.433
HMKSSTEIIYSDFLREVSNGQISEVTIQGDFVRGLFLSGSSFQTYAPKDSNLINILRDKKVRIKVHPP | -1.07
HMKSTELSIIEALRVLGLKHGASQDSIKKSYRRLVKQHHPDLGGSADSFRKVNEAYQLLIMN | -0.749
HMKSVILQLHPETLRWIREEAQADMADASVIQLLNDWELGTKKPTLSQVQKLSHETHIPFGYFFLKEKPA | -0.64
HMKSVQIPQSITVKEFSQAIEVSVADVIKKLMSMGVMVSQNKEINVDTAILVGEEFGVTVNVA | 0.609
HMKSVTVIFKESGNVVSSKKLSVVATAQYVDKSRITAPAGYRIATTDSKLKISENNTVTVEVK | -0.496
HMKSYTYNPNYLSDYNAYRLGIPLEALERLQLHRSTGRYVNSLSDFQSVTGISDSLKHSLSSSLRFPN | -1.36
HMKTDLQIQQDVMAELKWEPKVNAAHIGVEVKHGVVTLSGHVDSFAEKWNAEQAAKRVAGVKFIAIELDV | -2.1
HMKTEIKSPLPGIVLKIFVRTGEYVDKNQRLFSLEAMKMENEIKAERAGVIAGIRISEGQSVLQDEVIMEM | -3.7
HMKTFQSYQTTSMSNVNLRKRANGTSTILKRIKVGDTVTVVGKSGNYYQIQFDGKEGYALIKYIDGTDSGA | -1.95
HMKTFSTRLIALREAIGVNQSELARRVGVTPQAVQKWESGANGPRGKRLEKLASELRSTVGYLVSGEGDG | -0.434
HMKTGAKLKNLRKMKKLSQEEVAKVLNLSYSTLSRWENDTRIPTYEDLFKLGQFYGVSVDYLSDPN | -0.98
HMKTGNIITVSLVWKGKYYMIRMFFPSASRPTRSDVQNEIEKVYPGSKLSTFSVSDYEPGQPLLQV | -1.6
HMKTGNPYAQRNTADMYNYGRGIEKDSYLAFVWYFAAYKQGNDNAKPQIDSITASGHLSPNQQLHAKIE | -0.243
HMKTIQVGSTVRVNQGAKTYSGGGLASFVYKRNHKVSQLQGDRAVITYEGTVVAAVHVSDLSLIH | -0.192
HMKTLELIAAIRKRIAGGYAGADGRLPNIGEIAKDFSVSPMTAQKAVRALVEAGVLTSTRRKGVFLKQPAS | -2.09
HMKTLGMDKGVNIALNDAGLRAEDVSNLSAHYDTEDGVPVYEIKFTAGGFSYEYQIKASDGTIIEADRDAA | -0.00738
HMKTMAVYPVGTRVLTSDGEIGVVEKQNSEAPERPVIKILKGADGHDYEKPDFKDLMKILTLFIVDTI | 0.182
HMKTMSLSSIEKAIYKTKYENEPTSQRLSRIESSVFGTNFSQDSESERIARISSAINAQKSAK | 0.0313
HMKTMTTIRKGSRGDTVATLQRKLNLIADGIFGPITDEAVRDFQKSHGLAVDGIVGPKTWAALGVGS | 0.00482
HMKTNQINVSGLSKEKNFEVLESLDVYKFYNLFFLNKIKIDQLINSYNHIDNYSVFKKYPSSLIVKLSE | 0.0213
HMKTPETSEYVVQAGDSLRRILTERYGAKEQDLPYLYRQFRLLNPKVSSLDNIHAGTKVRIPLVASVL | -0.135
HMKTPRKVFTVLIRNTEYDVYDIDGKEHQGYNDTPKTWWLYHSERLPEGMIPPIDSDSWKPYSVGT | -1.27
HMKTTKESLLEYIQREVFTDSIHKEGLSTNEIADAFQIQRSNVSSLLNTLVKEGKLEKTTGRPVLYRIPEK | -0.126
HMKVEFDAMDKRILELMAKEYDTVLMARHLPLTPIVIDVRKKRIREVLNLPDATDAEIVIEAKEKDII | -1.08
